# From patent US20220056084A1 (CONSEJO SUPERIOR DE INVESTIGACIONES CIENTIFICAS CSIC, published 2022)
# Target: the molecule itself
# Assay: gel filtration and sedimentation velocity (self-association)
protein,measurement,value
"H10-LOV543m3-WH1 (other, Chimera of Avena sativa LOV2 (G528A, L531E, I532A) and wild-type RepA-WH1; carries the FMN chromophore; Dimer in solution; also called LOV2m3-WH1; LOV543-WH1m3; not shown: N-terminal His10 tag peptide) MGSSHHHHHHHHHHSSGLVPRGSLATTLERIEKNFVITDPRLPDNPIIFASDSFLQLTEYSREEILGRNCRFLQGPETDRATVRKIRDAIDNQTEVTVQLINYTKSGKKFWNLFHLQPMRDQKGDVQYFIGVQLDGTEHVRDAAEREAVMEAKKTAENIDEAAKLIESSHTLTLNEKRLVLCAASLIDSRKPLPKDGYLTIRADTFAEVFGIDVKHAYAALDDAATKLFNRDIRRYVKGKVVERMRWVFHVKYREGQGCVELGFSPTIIPHLTMLHKEFTSYQLK",binding result,binds
